# Measured values: US20200377551A1 (WAKE FOREST UNIVERSITY HEALTH SCIENCES, published 2020)
# T1: Tom20 (UniProt Q15388 1-145)
# T1 construct: Endogenous mitochondrial protein used as a specificity control in the MAVS co-IP
# T1 sequence (looked up): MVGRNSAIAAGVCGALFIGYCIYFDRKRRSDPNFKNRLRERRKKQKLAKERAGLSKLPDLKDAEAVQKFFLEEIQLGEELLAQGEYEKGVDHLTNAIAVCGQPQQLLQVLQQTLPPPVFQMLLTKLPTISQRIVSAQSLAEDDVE
# B1: mitochondrial antiviral-signaling protein (MAVS) (other)
# chain: MPFAEDKTYKYICRNFSNFCNVDVVEILPYLPCLTARDQDRLRATCTLSGNRDTLWHLFNTLQRRPGWVEYFIAALRGCELVDLADEVASVYESYQPRTSDRPPDPLEPPSLPAERPGPPTPAAAHSIPYNSCREKEPSYPMPVQETQAPESPGENSEQALQTLSPRAIPRNPDGGPLESSSDLAALSPLTSSGHQEKDTELGSTHTAGATSSLTPSRGPVSPSVSFQPLARSTPRASRLPGPTGSVVSTGTSFSSSSPGLASAGAAEGKQGAESDQAEPIICSSGAEAPANSLPSKVPTTLMPVNTVALKVPANPASVSTVPSKLPTSSKPPGAVPSNALTNPAPSKLPINSTRAGMVPSKVPTSMVLTKVSASTVPTDGSSRNEETPAAPTPAGATGGSSAWLDSSFENRGLGSELSKPGVLASQVDSPFSGCFEDLAISASTSLGMGPCHGPEENEYKSEGTFGIHVAENPSIQLLEGNPGPPADPDGGPRPQADRKFQEREVPCHRPSPGALWLQVAVTGVLVVTLLVVLYRRRLH
# notes: Endogenous full-length MAVS in HEK293 lysates or on isolated mitochondria; also called MAVS protein
# Molecular target: T1, Tom20
# Test: co-immunoprecipitation with MAVS antibody from HEK293 lysates, immunoblot (FIG. 2E)
binder,measurement,value
B1,binding result,no binding
